Laboratory results as given in paper PMC8641752.

Columns and labels:
Experiment in all cases: co-IP; substrate (Hmg2-GFP, Ste6*-GFP, CPY*-GFP with GFP-Trap; Pdr5*-Myc with Myc Trap) precipitated from yeast microsomes solubilised in Tween IP buffer (500 mM NaCl, 50 mM Tris pH 7.5, 10 mM EDTA, 1.5% Tween-20), overnight 4°C; blots with anti-HA, anti-Cdc48
Hmg2-GFP (S. cerevisiae) = Hmg2-GFP (S. cerevisiae) (UniProt P12684)
[1] = molecular target: Pdr5*-Myc (S. cerevisiae) (UniProt P33302)
[2] = molecular target: Ste6*-GFP (S. cerevisiae) (UniProt P12866)
Sequence of UniProt P12866 (P12866 whole entry): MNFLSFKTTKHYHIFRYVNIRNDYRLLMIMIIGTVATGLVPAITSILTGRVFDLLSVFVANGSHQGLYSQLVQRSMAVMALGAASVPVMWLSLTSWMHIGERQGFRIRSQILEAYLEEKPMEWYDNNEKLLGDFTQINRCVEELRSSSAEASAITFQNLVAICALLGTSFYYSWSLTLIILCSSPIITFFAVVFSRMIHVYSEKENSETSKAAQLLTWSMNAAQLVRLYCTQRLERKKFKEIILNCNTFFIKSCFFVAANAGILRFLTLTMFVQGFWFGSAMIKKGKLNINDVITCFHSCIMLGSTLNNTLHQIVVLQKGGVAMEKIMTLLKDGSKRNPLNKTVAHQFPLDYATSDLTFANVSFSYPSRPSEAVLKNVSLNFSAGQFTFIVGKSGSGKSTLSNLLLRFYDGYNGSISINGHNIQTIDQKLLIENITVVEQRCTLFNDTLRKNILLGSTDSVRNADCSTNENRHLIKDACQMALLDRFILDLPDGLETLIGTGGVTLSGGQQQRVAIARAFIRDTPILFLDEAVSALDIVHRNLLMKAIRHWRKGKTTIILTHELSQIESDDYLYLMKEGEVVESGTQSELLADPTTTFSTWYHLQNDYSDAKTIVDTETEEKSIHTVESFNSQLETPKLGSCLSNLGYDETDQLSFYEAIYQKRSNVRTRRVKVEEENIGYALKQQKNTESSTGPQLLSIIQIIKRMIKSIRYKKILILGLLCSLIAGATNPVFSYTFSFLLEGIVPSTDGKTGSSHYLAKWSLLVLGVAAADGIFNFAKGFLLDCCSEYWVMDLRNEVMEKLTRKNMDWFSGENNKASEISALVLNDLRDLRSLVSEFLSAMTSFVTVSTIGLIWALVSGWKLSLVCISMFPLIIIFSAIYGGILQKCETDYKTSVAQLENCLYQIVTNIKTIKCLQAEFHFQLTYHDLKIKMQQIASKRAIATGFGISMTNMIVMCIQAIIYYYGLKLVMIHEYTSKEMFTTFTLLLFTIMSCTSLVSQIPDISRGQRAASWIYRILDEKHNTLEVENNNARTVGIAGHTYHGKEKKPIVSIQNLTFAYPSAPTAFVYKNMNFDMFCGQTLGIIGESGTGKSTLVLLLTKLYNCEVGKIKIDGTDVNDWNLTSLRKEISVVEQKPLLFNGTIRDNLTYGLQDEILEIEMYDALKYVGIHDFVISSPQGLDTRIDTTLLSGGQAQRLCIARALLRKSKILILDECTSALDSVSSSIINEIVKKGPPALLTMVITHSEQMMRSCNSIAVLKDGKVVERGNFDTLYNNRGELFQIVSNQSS

Sequence of Dfm1-5Ashp (Q12743 whole entry): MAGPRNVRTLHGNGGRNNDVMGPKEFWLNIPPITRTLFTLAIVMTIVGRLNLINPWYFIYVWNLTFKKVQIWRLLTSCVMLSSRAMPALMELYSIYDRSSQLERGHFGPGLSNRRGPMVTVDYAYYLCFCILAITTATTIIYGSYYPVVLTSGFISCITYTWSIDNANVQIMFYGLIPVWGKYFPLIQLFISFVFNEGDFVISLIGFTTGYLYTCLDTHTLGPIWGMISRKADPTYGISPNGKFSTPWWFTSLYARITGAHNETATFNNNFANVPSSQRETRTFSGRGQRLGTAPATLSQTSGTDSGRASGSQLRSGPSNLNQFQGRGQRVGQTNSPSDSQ
Sequence of UniProt P12684 (P12684 whole entry): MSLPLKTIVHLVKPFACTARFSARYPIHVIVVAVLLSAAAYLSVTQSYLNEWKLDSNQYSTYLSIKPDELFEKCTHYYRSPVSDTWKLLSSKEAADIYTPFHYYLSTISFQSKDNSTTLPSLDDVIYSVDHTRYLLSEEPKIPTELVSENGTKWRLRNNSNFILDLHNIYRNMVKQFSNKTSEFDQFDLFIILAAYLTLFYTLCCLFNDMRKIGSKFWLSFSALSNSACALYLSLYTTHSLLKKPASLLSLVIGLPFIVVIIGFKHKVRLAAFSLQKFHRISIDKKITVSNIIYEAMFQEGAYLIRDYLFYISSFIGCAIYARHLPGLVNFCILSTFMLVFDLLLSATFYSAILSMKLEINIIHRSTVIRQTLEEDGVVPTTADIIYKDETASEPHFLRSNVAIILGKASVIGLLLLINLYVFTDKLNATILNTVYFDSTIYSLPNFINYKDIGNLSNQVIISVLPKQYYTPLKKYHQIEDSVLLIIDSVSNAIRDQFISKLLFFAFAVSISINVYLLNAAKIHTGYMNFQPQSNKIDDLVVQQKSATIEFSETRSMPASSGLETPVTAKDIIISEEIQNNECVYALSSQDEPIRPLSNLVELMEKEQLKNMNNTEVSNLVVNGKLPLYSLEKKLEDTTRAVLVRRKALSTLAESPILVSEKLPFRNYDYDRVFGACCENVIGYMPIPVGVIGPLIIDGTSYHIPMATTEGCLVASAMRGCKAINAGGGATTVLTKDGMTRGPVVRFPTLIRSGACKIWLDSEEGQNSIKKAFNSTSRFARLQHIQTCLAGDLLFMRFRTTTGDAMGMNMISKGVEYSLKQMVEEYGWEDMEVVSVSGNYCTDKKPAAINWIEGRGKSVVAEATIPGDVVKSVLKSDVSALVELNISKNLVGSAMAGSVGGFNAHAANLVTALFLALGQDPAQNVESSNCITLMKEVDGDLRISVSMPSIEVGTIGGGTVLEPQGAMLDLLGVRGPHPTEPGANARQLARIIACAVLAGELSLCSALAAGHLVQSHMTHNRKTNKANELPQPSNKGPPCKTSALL
Sequence of UniProt P33302 (P33302 whole entry): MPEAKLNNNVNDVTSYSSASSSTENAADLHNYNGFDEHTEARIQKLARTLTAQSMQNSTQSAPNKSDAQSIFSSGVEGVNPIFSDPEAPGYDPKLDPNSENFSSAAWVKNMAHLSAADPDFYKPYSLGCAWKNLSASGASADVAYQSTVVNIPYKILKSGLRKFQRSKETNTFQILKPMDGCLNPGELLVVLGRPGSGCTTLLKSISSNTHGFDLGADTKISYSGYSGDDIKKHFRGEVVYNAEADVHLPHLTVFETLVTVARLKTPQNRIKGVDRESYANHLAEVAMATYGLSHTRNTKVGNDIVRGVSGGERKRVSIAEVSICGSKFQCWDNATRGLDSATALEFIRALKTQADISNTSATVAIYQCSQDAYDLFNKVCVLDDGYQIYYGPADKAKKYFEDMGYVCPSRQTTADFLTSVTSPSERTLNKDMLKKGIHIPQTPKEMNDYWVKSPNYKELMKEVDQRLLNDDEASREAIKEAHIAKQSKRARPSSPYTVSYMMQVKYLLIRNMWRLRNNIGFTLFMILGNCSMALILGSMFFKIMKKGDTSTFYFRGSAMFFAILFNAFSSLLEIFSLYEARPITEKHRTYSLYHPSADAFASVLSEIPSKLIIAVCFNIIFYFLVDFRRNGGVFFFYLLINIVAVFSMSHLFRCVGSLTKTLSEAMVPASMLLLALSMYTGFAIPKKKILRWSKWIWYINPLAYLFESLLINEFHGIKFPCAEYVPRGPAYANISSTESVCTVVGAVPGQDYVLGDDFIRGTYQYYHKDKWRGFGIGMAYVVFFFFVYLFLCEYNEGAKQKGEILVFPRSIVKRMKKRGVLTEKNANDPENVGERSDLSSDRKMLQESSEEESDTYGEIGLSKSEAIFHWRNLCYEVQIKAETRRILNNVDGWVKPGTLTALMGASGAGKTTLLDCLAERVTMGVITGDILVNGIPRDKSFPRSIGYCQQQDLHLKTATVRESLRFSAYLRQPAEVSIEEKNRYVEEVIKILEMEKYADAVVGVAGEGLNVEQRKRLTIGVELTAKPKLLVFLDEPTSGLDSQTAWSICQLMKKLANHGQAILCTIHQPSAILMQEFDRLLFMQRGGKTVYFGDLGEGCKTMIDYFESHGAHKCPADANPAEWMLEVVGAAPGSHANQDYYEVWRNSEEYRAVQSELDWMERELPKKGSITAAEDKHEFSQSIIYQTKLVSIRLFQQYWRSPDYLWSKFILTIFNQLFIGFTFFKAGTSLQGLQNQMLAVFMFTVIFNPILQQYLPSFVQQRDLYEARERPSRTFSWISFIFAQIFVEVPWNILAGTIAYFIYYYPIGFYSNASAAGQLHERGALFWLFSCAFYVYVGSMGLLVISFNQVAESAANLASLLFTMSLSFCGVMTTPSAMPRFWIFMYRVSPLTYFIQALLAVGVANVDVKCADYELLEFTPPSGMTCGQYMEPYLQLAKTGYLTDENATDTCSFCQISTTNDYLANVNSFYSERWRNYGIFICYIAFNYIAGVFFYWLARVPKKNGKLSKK

fraction of Dfm1-5Ashp bound compared with wild-type Dfm1 (Hmg2-GFP (S. cerevisiae)): < 5%
fraction of Dfm1-5Ashp bound compared with wild-type Dfm1 [1]: < 5%
fraction of Dfm1-5Ashp bound compared with wild-type Dfm1 [2]: < 5%
Substance: Dfm1-5Ashp (from UniProt Q12743 1-341) (natural protein)
